These results are taken from the supplement of paper PMC9112550, “Optimization of the antimicrobial peptide Bac7 by deep mutational scanning” (BMC Biology, 2022).
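Note: peptides expressed intracellularly from a pBAD plasmid library in pooled LB shake-flask culture, induced with 0.3% L-arabinose, DNA abundance read by NGS, three biological replicates, DESeq2 with apeglm shrinkage.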

The series deals with Escherichia coli TOP10. In words: shrunken log2 fold change of peptide-encoding DNA abundance (4.5 h post-induction vs induction); higher = less antimicrobial activity (less host growth inhibition). The conditions noted are these: time post-induction: 4.5 h; library: site-saturation at positions 5, 18, 19, 20.
Regarding RRIRCRPPRLPRPRPRPKDLPRP, the “shrunken log2 fold change” value was -0.46.

For RRIRPRPPRLPRPRPRPLNPPRP, the “shrunken log2 fold change” value is -0.131.

Regarding RRIRQRPPRLPRPRPRPFDWPRP, the “shrunken log2 fold change” value is -0.0369.

Take RRIRYRPPRLPRPRPRPSNLPRP: the “shrunken log2 fold change” value is -0.729.

Regarding RRIRIRPPRLPRPRPRPNAHPRP, the “shrunken log2 fold change” value is -0.0997.

Regarding RRIRHRPPRLPRPRPRPHCGPRP, the “shrunken log2 fold change” value is -0.0402.

In the case of RRIRERPPRLPRPRPRPQGHPRP, the “shrunken log2 fold change” value was -0.0972.

Turning to RRIRERPPRLPRPRPRPSFMPRP, the “shrunken log2 fold change” value was -0.546.

On to RRIRWRPPRLPRPRPRPLWVPRP, for which the “shrunken log2 fold change” value was 0.0766.

With RRIRDRPPRLPRPRPRPRDSPRP, the “shrunken log2 fold change” value was -0.153.

Turning to RRIRKRPPRLPRPRPRPKVAPRP, the “shrunken log2 fold change” value was 1.23.

For RRIRSRPPRLPRPRPRPAVCPRP, the “shrunken log2 fold change” value was 0.185.

Turning to RRIRCRPPRLPRPRPRPVFEPRP, the “shrunken log2 fold change” value is -0.00537.

Turning to RRIRSRPPRLPRPRPRPHGAPRP, the “shrunken log2 fold change” value was 0.104.

For the sequence RRIRTRPPRLPRPRPRPLLFPRP, the “shrunken log2 fold change” value was -0.181.

RRIRVRPPRLPRPRPRPDYGPRP: the “shrunken log2 fold change” value is -0.133.

For RRIRRRPPRLPRPRPRPWEDPRP, the “shrunken log2 fold change” value is 0.0594.

With RRIRERPPRLPRPRPRPGHLPRP, the “shrunken log2 fold change” value is -0.0138.

As for RRIRSRPPRLPRPRPRPGLGPRP, the “shrunken log2 fold change” value was 0.485.

As for RRIRKRPPRLPRPRPRPDQMPRP, the “shrunken log2 fold change” value is -0.0646.

As to RRIRVRPPRLPRPRPRPETGPRP, the “shrunken log2 fold change” value turned out to be 0.206.

For the sequence RRIRQRPPRLPRPRPRPRCKPRP, the “shrunken log2 fold change” value was 0.268.

Turning to RRIRYRPPRLPRPRPRPLECPRP, the “shrunken log2 fold change” value was -0.183.

With RRIRSRPPRLPRPRPRPNMRPRP, the “shrunken log2 fold change” value worked out at 0.43.

Consider RRIRTRPPRLPRPRPRPDACPRP, for which the “shrunken log2 fold change” value is -0.0191.

RRIRHRPPRLPRPRPRPFSWPRP: the “shrunken log2 fold change” value was -0.0533.

As for RRIRYRPPRLPRPRPRPGHDPRP, the “shrunken log2 fold change” value is -0.0736.

Consider RRIRDRPPRLPRPRPRPTIKPRP, for which the “shrunken log2 fold change” value is -0.295.

For RRIRCRPPRLPRPRPRPDFPPRP, the “shrunken log2 fold change” value turned out to be 0.137.

For the sequence RRIRQRPPRLPRPRPRPVGHPRP, the “shrunken log2 fold change” value is -0.0132.

On to RRIRPRPPRLPRPRPRPQNRPRP, for which the “shrunken log2 fold change” value is -0.598.

As for RRIRPRPPRLPRPRPRPGGWPRP, the “shrunken log2 fold change” value worked out at 0.724.

RRIRQRPPRLPRPRPRPPTPPRP: the “shrunken log2 fold change” value is 0.538.

For RRIRVRPPRLPRPRPRPAGPPRP, the “shrunken log2 fold change” value amounted to 0.264.

In the case of RRIRDRPPRLPRPRPRPVDSPRP, the “shrunken log2 fold change” value was -0.0208.

As for RRIRWRPPRLPRPRPRPVVNPRP, the “shrunken log2 fold change” value was 0.261.

Take RRIRLRPPRLPRPRPRPLIGPRP: the “shrunken log2 fold change” value was 0.0224.

For RRIRGRPPRLPRPRPRPYQDPRP, the “shrunken log2 fold change” value was 0.0178.

For RRIRPRPPRLPRPRPRPVRVPRP, the “shrunken log2 fold change” value amounted to 0.502.

For the sequence RRIRSRPPRLPRPRPRPDYCPRP, the “shrunken log2 fold change” value is -0.284.

RRIRHRPPRLPRPRPRPNMQPRP: the “shrunken log2 fold change” value was -0.0674.

As to RRIRCRPPRLPRPRPRPHIMPRP, the “shrunken log2 fold change” value is -1.4.

In the case of RRIRDRPPRLPRPRPRPERFPRP, the “shrunken log2 fold change” value came out at 0.361.

As for RRIRGRPPRLPRPRPRPLKCPRP, the “shrunken log2 fold change” value came to 0.303.

On to RRIRLRPPRLPRPRPRPNYKPRP, for which the “shrunken log2 fold change” value is -0.752.

As to RRIRARPPRLPRPRPRPVSNPRP, the “shrunken log2 fold change” value came to 0.296.

Turning to RRIRQRPPRLPRPRPRPPSNPRP, the “shrunken log2 fold change” value is -0.481.

Take RRIRARPPRLPRPRPRPNQFPRP: the “shrunken log2 fold change” value was -0.014.

With RRIRIRPPRLPRPRPRPAWTPRP, the “shrunken log2 fold change” value was 0.304.

Consider RRIRERPPRLPRPRPRPHHAPRP, for which the “shrunken log2 fold change” value worked out at 0.0055.

With RRIRFRPPRLPRPRPRPCIRPRP, the “shrunken log2 fold change” value was -0.0335.

Regarding RRIRTRPPRLPRPRPRPRGCPRP, the “shrunken log2 fold change” value turned out to be 0.261.

In the case of RRIRLRPPRLPRPRPRPMNYPRP, the “shrunken log2 fold change” value was -0.0583.

With RRIRCRPPRLPRPRPRPWVCPRP, the “shrunken log2 fold change” value turned out to be 0.0107.

For RRIRFRPPRLPRPRPRPRLYPRP, the “shrunken log2 fold change” value is -0.014.

Turning to RRIRTRPPRLPRPRPRPELRPRP, the “shrunken log2 fold change” value was found to be 0.225.

For RRIRLRPPRLPRPRPRPPERPRP, the “shrunken log2 fold change” value came to 0.566.

With RRIRFRPPRLPRPRPRPQLPPRP, the “shrunken log2 fold change” value is -0.0654.

For the sequence RRIRYRPPRLPRPRPRPKNYPRP, the “shrunken log2 fold change” value is -1.38.

Turning to RRIRIRPPRLPRPRPRPPWCPRP, the “shrunken log2 fold change” value was found to be 1.45.

As to RRIRLRPPRLPRPRPRPRTKPRP, the “shrunken log2 fold change” value is 0.567.

As to RRIRRRPPRLPRPRPRPEKHPRP, the “shrunken log2 fold change” value came to 0.121.

For the sequence RRIRFRPPRLPRPRPRPKDEPRP, the “shrunken log2 fold change” value is -0.13.

On to RRIRPRPPRLPRPRPRPVHYPRP, for which the “shrunken log2 fold change” value was -0.121.

In the case of RRIRCRPPRLPRPRPRPKRTPRP, the “shrunken log2 fold change” value came out at 0.642.

As for RRIRFRPPRLPRPRPRPWHTPRP, the “shrunken log2 fold change” value is -0.0673.

Take RRIRKRPPRLPRPRPRPRLIPRP: the “shrunken log2 fold change” value is 0.234.

RRIRVRPPRLPRPRPRPKAMPRP: the “shrunken log2 fold change” value is 0.0194.

Consider RRIRDRPPRLPRPRPRPICNPRP, for which the “shrunken log2 fold change” value came out at 0.324.

Regarding RRIRSRPPRLPRPRPRPYDHPRP, the “shrunken log2 fold change” value is -0.795.

For RRIRRRPPRLPRPRPRPYFWPRP, the “shrunken log2 fold change” value was found to be 0.0638.

RRIRPRPPRLPRPRPRPTRYPRP: the “shrunken log2 fold change” value came out at 0.23.

Consider RRIRWRPPRLPRPRPRPAFCPRP, for which the “shrunken log2 fold change” value was determined as 0.143.

In the case of RRIRSRPPRLPRPRPRPGASPRP, the “shrunken log2 fold change” value worked out at 0.418.

As to RRIRLRPPRLPRPRPRPKGDPRP, the “shrunken log2 fold change” value worked out at 0.182.

For the sequence RRIRERPPRLPRPRPRPGWWPRP, the “shrunken log2 fold change” value was -0.0125.

Turning to RRIRHRPPRLPRPRPRPVIWPRP, the “shrunken log2 fold change” value was -0.134.

Consider RRIRSRPPRLPRPRPRPQQWPRP, for which the “shrunken log2 fold change” value is -0.175.

Turning to RRIRLRPPRLPRPRPRPTGTPRP, the “shrunken log2 fold change” value stood at 0.104.

Take RRIRGRPPRLPRPRPRPQPVPRP: the “shrunken log2 fold change” value amounted to 0.285.

Take RRIRFRPPRLPRPRPRPLVSPRP: the “shrunken log2 fold change” value was -0.425.

Turning to RRIRARPPRLPRPRPRPVSIPRP, the “shrunken log2 fold change” value was found to be 0.119.

In the case of RRIRDRPPRLPRPRPRPCSSPRP, the “shrunken log2 fold change” value came out at 0.187.

For RRIRIRPPRLPRPRPRPTNKPRP, the “shrunken log2 fold change” value is -0.687.

With RRIRNRPPRLPRPRPRPCGNPRP, the “shrunken log2 fold change” value is -0.0905.

Regarding RRIRIRPPRLPRPRPRPMGNPRP, the “shrunken log2 fold change” value was 0.0077.

Regarding RRIRTRPPRLPRPRPRPTPRPRP, the “shrunken log2 fold change” value was 0.674.

Turning to RRIRLRPPRLPRPRPRPMCDPRP, the “shrunken log2 fold change” value is -0.481.

Take RRIRGRPPRLPRPRPRPHGIPRP: the “shrunken log2 fold change” value amounted to 0.00234.

As for RRIRLRPPRLPRPRPRPTPAPRP, the “shrunken log2 fold change” value worked out at 0.306.

Take RRIRQRPPRLPRPRPRPVARPRP: the “shrunken log2 fold change” value was found to be 0.0118.

Take RRIRDRPPRLPRPRPRPIEKPRP: the “shrunken log2 fold change” value is -0.0135.

For the sequence RRIRQRPPRLPRPRPRPHECPRP, the “shrunken log2 fold change” value is -0.0866.

For RRIRTRPPRLPRPRPRPKANPRP, the “shrunken log2 fold change” value is -0.00404.

On to RRIRHRPPRLPRPRPRPQNVPRP, for which the “shrunken log2 fold change” value is -0.0702.

On to RRIRMRPPRLPRPRPRPIEPPRP, for which the “shrunken log2 fold change” value is 0.0361.

Take RRIRERPPRLPRPRPRPHTLPRP: the “shrunken log2 fold change” value is -0.571.

Consider RRIRKRPPRLPRPRPRPIPWPRP, for which the “shrunken log2 fold change” value worked out at 0.466.

On to RRIRRRPPRLPRPRPRPKEEPRP, for which the “shrunken log2 fold change” value is -0.00663.

Regarding RRIRRRPPRLPRPRPRPKYPPRP, the “shrunken log2 fold change” value was -0.0539.

Consider RRIRPRPPRLPRPRPRPQHPPRP, for which the “shrunken log2 fold change” value was 0.0328.

Consider RRIRMRPPRLPRPRPRPLSRPRP, for which the “shrunken log2 fold change” value was found to be 0.349.

With RRIRKRPPRLPRPRPRPPFPPRP, the “shrunken log2 fold change” value came out at 0.582.

Regarding RRIRTRPPRLPRPRPRPRNYPRP, the “shrunken log2 fold change” value is -0.0303.

With RRIRSRPPRLPRPRPRPYHNPRP, the “shrunken log2 fold change” value is -1.22.

For RRIRHRPPRLPRPRPRPAYFPRP, the “shrunken log2 fold change” value is -0.833.

As for RRIRTRPPRLPRPRPRPHKQPRP, the “shrunken log2 fold change” value is -0.148.

As for RRIRARPPRLPRPRPRPLQGPRP, the “shrunken log2 fold change” value turned out to be 0.0704.

With RRIRFRPPRLPRPRPRPHRKPRP, the “shrunken log2 fold change” value was determined as 0.306.

Take RRIRERPPRLPRPRPRPVATPRP: the “shrunken log2 fold change” value came out at 0.124.

For RRIRIRPPRLPRPRPRPSNHPRP, the “shrunken log2 fold change” value was -1.15.

Regarding RRIRVRPPRLPRPRPRPERFPRP, the “shrunken log2 fold change” value is -0.023.

With RRIRPRPPRLPRPRPRPRHFPRP, the “shrunken log2 fold change” value was determined as 0.168.

For the sequence RRIRMRPPRLPRPRPRPKDLPRP, the “shrunken log2 fold change” value is 0.153.

As for RRIRLRPPRLPRPRPRPNTIPRP, the “shrunken log2 fold change” value was -0.796.

With RRIRMRPPRLPRPRPRPFGIPRP, the “shrunken log2 fold change” value stood at 0.0278.

With RRIRHRPPRLPRPRPRPCCHPRP, the “shrunken log2 fold change” value is -0.707.

In the case of RRIRHRPPRLPRPRPRPFEKPRP, the “shrunken log2 fold change” value is -0.0199.

On to RRIRNRPPRLPRPRPRPRAIPRP, for which the “shrunken log2 fold change” value turned out to be 0.064.

For RRIRGRPPRLPRPRPRPLNTPRP, the “shrunken log2 fold change” value is 0.0396.

In the case of RRIRVRPPRLPRPRPRPQTSPRP, the “shrunken log2 fold change” value was -0.0971.

Consider RRIRQRPPRLPRPRPRPMRFPRP, for which the “shrunken log2 fold change” value turned out to be 0.0202.

On to RRIRNRPPRLPRPRPRPHCKPRP, for which the “shrunken log2 fold change” value was -0.249.

For the sequence RRIRHRPPRLPRPRPRPSPLPRP, the “shrunken log2 fold change” value was -0.223.

For the sequence RRIRWRPPRLPRPRPRPTAVPRP, the “shrunken log2 fold change” value was found to be 0.415.
